Measurements: patent publication US20260234255A1 (Genmab, published 2026)

Tests used:
human CD30 [1] = target: T1, human CD30 (human, UniProt P28908 19-595); experiment: flow cytometry, DEL cells
T1 construct: The same molecule is used for CD30 on HL/ALCL/NHL cell lines; also called huCD30; TNFRSF8
T1 sequence: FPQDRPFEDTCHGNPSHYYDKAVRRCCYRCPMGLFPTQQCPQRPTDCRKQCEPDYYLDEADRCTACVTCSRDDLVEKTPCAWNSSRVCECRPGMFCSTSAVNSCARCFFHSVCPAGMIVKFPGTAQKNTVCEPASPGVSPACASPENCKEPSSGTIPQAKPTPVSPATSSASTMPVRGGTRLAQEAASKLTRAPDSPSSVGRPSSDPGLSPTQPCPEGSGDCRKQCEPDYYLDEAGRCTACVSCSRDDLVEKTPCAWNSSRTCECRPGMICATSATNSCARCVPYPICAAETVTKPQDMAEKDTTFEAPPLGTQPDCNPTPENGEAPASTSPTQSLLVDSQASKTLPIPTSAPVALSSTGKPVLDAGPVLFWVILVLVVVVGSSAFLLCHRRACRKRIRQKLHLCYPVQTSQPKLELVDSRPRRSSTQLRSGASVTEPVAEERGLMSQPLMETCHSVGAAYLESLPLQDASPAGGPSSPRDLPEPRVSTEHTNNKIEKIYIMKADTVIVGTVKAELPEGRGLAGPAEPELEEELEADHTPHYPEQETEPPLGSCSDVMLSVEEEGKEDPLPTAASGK

human CD30 [2] = target: T1, human CD30; experiment: flow cytometry, HH cells
Protocol: Cells (3×10⁴ cells/well) were incubated in polystyrene 96-well round-bottom plates (Greiner bio-one, cat. no. 650180) with serial dilutions of antibodies (range 0.0046 to 10 μg/mL in 3-fold dilution steps) in 50 μL staining buffer at 4° C. for 30 min. After washing twice in staining buffer, cells were incubated with 50 μL secondary antibody at 4° C. for 30 min. […] Next, cells were washed twice in staining buffer, resuspended in 100 μL staining buffer supplemented with TO-PRO-3 iodide (Thermo Fisher Scientific; cat. no. T3605; 1:8000 dilution) and analyzed on a FACSCelesta flow cytometer (BD Biosciences, USA). Live cells were gated based on FSC/SSC and absence of TOPRO-3 staining. Binding curves were analyzed by non-linear regression of log-transformed data (sigmoidal dose-response with variable slope, four parameters) using GraphPad Prism V7.02 software (GraphPad Software, San Diego, CA, USA).

human CD30 [3] = target: T1, human CD30; experiment: flow cytometry, L-82 cells
human CD30 [4] = target: T1, human CD30; experiment: flow cytometry, KI-JK cells
human CD30 [5] = target: T1, human CD30; experiment: flow cytometry, L-540 cells
human CD30 [6] = target: T1, human CD30; experiment: flow cytometry, KM-H2 cells
human CD30 [7] = target: T1, human CD30; experiment: flow cytometry, DL-40 cells
human CD30 [8] = target: T1, human CD30; experiment: flow cytometry, HDLM-2 cells
human CD30 [9] = target: T1, human CD30; experiment: flow cytometry, L-1236 cells
human CD30 [10] = target: T1, human CD30; experiment: flow cytometry, SUP-M2 cells
human CD30 [11] = target: T1, human CD30; experiment: flow cytometry, SR-786 cells
human CD30 [12] = target: T1, human CD30; experiment: flow cytometry, NCEB-1 cells
[13] = target: T2, cynomolgus monkey (Macaca fascicularis) CD30 (cynomolgus monkey, UniProt P28908 19-595 (human entry)); experiment: flow cytometry, HEK293 cells transfected with mfCD30
T2 construct: also called mfCD30
T2 chain: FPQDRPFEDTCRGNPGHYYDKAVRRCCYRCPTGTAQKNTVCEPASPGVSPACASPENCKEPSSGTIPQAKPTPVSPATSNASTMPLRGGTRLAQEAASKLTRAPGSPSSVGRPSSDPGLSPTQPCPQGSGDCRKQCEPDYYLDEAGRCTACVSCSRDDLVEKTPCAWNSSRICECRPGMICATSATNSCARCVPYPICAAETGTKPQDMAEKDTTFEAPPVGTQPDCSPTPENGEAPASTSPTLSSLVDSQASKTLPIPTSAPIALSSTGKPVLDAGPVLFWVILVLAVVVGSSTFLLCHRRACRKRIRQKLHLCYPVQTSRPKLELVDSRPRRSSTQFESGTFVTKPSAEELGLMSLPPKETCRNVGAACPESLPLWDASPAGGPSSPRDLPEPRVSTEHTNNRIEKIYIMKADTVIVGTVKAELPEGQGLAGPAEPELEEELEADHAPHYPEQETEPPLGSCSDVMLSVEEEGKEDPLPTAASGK
Protocol: Cells (3×10⁴ cells/well) were incubated in polystyrene 96-well round-bottom plates (Thermo Scientific, cat. no. 163320) with serial dilutions of antibodies (ranging from 0.0002 to 50 μg/mL in 4-fold dilution steps) in 50 μL staining buffer at 4° C. for 30 min. Experiments were performed in technical duplicate. After washing twice in staining buffer, cells were incubated in 50 μL secondary antibody at 4° C. for 30 min. As a secondary antibody, R-PE-conjugated goat-anti-human IgG (Jackson ImmunoResearch, UK; cat. no. 109⁻¹¹⁶-098) diluted 1:200 in staining buffer was used. Cells were washed twice in staining buffer, resuspended in 30 μL staining buffer containing 0.4% EDTA and the ToPro-3 viability marker (Invitrogen, cat. no. T3605) diluted 1:10,000. Cells were analyzed on an iQue Screener (Intellicyt Corporation, USA). Binding curves were analyzed using non-linear regression (sigmoidal dose-response with variable slope) using GraphPad Prism V9.0.0 software (GraphPad Software, San Diego, CA, USA).

human CD30 [14] = target: T1, human CD30; experiment: flow cytometry, HDLM-2 cells
Method in brief: (§1)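 CD3×CD30 bispecific antibodies, serially diluted 3-fold from 10 to 0.0046 μg/mL, were incubated with 3×10⁴ cells/well at 4° C for 30 min, then with a secondary antibody at 4° C for 30 min. Live cells were gated by FSC/SSC and TO-PRO-3 exclusion, and curves were fitted by four-parameter sigmoidal regression.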

human CD30 [15] = target: T1, human CD30; experiment: flow cytometry, SU-DHL-1 cells
Method in brief: as §1

human CD30 [16] = target: T1, human CD30; experiment: flow cytometry, Expi293F cells transfected with human CD30
Protocol: Cells (3×10⁴ cells/well) were incubated in polystyrene 96-well round-bottom plates (Greiner bio-one, cat. no. 650180) with serial dilutions of antibodies (ranging from 0.005 to 10 μg/mL in 3-fold dilution steps) in 100 μL staining buffer at 4° C. for 30 min. Experiments were performed in technical duplicate. After washing twice in staining buffer, cells were incubated in 50 μL secondary antibody at 4° C. for 30 min. As a secondary antibody, R-PE-conjugated goat-anti-human IgG (Jackson ImmunoResearch, UK; cat. no. 109⁻¹¹⁶-098) diluted 1:400 in staining buffer was used. Cells were washed twice in staining buffer, resuspended in 30 μL staining buffer containing 0.4% EDTA and analyzed on an iQue Screener (Intellicyt Corporation, USA). Binding curves were analyzed using non-linear regression (sigmoidal dose-response with variable slope) using GraphPad Prism V9.0.0 software (GraphPad Software, San Diego, CA, USA).

[17] = target: T3, rhesus monkey (Macaca mulatta) CD30 (rhesus monkey, UniProt P28908 19-595 (human entry)); experiment: flow cytometry, Expi293F cells transfected with rhesus monkey CD30
T3 construct: also called mmCD30
T3 chain: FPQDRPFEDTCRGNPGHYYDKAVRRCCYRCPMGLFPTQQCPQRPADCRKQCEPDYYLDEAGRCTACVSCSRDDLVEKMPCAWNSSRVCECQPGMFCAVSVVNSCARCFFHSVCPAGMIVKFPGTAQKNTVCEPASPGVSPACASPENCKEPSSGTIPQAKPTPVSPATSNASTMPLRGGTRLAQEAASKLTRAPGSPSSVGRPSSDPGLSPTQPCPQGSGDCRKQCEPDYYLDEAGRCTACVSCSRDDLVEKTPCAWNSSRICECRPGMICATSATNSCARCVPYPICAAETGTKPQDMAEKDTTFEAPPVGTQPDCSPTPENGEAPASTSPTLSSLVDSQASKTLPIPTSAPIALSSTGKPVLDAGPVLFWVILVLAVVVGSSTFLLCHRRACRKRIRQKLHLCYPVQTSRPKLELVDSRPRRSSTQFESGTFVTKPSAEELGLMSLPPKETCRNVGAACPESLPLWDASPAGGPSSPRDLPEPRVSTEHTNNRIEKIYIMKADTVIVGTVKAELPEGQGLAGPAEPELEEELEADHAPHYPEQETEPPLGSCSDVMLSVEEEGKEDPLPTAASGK

B1: IgG1-CD30-MDX060-FERR (antibody)
heavy: QVQLQQWGAGLLKPSETLSLTCAVYGGSFSAYYWSWIRQPPGKGLEWIGDINHGGGTNYNPSLKSRVTISVDTSKNQFSLKLNSVTAADTAVYYCASLTAYWGQGSLVTVSSASTKGPSVFPLAPSSKSTSGGTAALGCLVKDYFPEPVTVSWNSGALTSGVHTFPAVLQSSGLYSLSSVVTVPSSSLGTQTYICNVNHKPSNTKVDKRVEPKSCDKTHTCPPCPAPEFERGPSVFLFPPKPKDTLMISRTPEVTCVVVDVSHEDPEVKFNWYVDGVEVHNAKTKPREEQYNSTYRVVSVLTVLHQDWLNGKEYKCKVSNKALPAPIEKTISKAKGQPREPQVYTLPPSREEMTKNQVSLTCLVKGFYPSDIAVEWESNGQPENNYKTTPPVLDSDGSFFLYSRLTVDKSRWQQGNVFSCSVMHEALHNHYTQKSLSLSPG
light: DIQMTQSPTSLSASVGDRVTITCRASQGISSWLTWYQQKPEKAPKSLIYAASSLQSGVPSRFSGSGSGTDFTLTISSLQPEDFATYYCQQYDSYPITFGQGTRLEIKRTVAAPSVFIFPPSDEQLKSGTASVVCLLNNFYPREAKVQWKVDNALQSGNSQESVTEQDSKDSTYSLSSTLTLSKADYEKHKVYACEVTHQGLSSPVTKSFNRGEC
notes: Monospecific, bivalent parental antibody; also called IgG1-huCD30-MDX060-FERR
With B1 the “EC50 (read off the curve)” value (human CD30 [1]) was about 0.1 µg/mL, the “EC50 (read off the curve)” value (human CD30 [2]) was about 0.1 µg/mL and the “EC50 (read off the curve)” value (human CD30 [3]) was about 0.07 µg/mL. For the same binder, the “EC50 (read off the curve)” value (human CD30 [4]) was about 0.06 µg/mL, the “EC50 (read off the curve)” value (human CD30 [5]) was about 0.3 µg/mL and the “EC50 (read off the curve)” value (human CD30 [6]) was about 0.04 µg/mL. For the same binder, the “EC50 (read off the curve)” value (human CD30 [7]) was about 0.07 µg/mL, the “EC50 (read off the curve)” value (human CD30 [8]) was about 0.06 µg/mL and the “EC50 (read off the curve)” value (human CD30 [9]) was about 0.04 µg/mL. The “EC50 (read off the curve)” value (human CD30 [10]) was about 0.03 µg/mL, the “EC50 (read off the curve)” value (human CD30 [11]) was about 0.1 µg/mL and the “EC50 (read off the curve)” value (human CD30 [12]) was about 0.04 µg/mL.

B2: bsG1-huCD3-FEALxb12-FERR (bispecific antibody, human IgG1, kappa, lambda)
heavy 1: not shown
light 1: not shown
heavy 2: QVQLVQSGAEVKKPGASVKVSCQASGYRFSNFVIHWVRQAPGQRFEWMGWINPYNGNKEFSAKFQDRVTFTADTSANTAYMELRSLRSADTAVYYCARVGPYSWDDSPQDNYYMDVWGKGTTVIVSSASTKGPSVFPLAPSSKSTSGGTAALGCLVKDYFPEPVTVSWNSGALTSGVHTFPAVLQSSGLYSLSSVVTVPSSSLGTQTYICNVNHKPSNTKVDKRVEPKSCDKTHTCPPCPAPEFERGPSVFLFPPKPKDTLMISRTPEVTCVVVDVSHEDPEVKFNWYVDGVEVHNAKTKPREEQYNSTYRVVSVLTVLHQDWLNGKEYKCKVSNKALPAPIEKTISKAKGQPREPQVYTLPPSREEMTKNQVSLTCLVKGFYPSDIAVEWESNGQPENNYKTTPPVLDSDGSFFLYSRLTVDKSRWQQGNVFSCSVMHEALHNHYTQKSLSLSPG
light 2: EIVLTQSPGTLSLSPGERATFSCRSSHSIRSRRVAWYQHKPGQAPRLVIHGVSNRASGISDRFSGSGSGTDFTLTITRVEPEDFALYYCQVYGASSYTFGQGTKLERKRTVAAPSVFIFPPSDEQLKSGTASVVCLLNNFYPREAKVQWKVDNALQSGNSQESVTEQDSKDSTYSLSSTLTLSKADYEKHKVYACEVTHQGLSSPVTKSFNRGEC
notes: Monovalent CD3 control antibody
B2: no binding (tested: 0.0002 to 50 µg/mL) [13].

B3: IgG1-CD30-T408-FEAR (antibody, V domains shown)
VH: QVQLQQPGAELVRPGASVKLSCKASGYTFTSYWINWVKQRPGQGLEWIGNIYPSDSYSNYNQKFKDKATLTVDKSSSTAYMQLSSPTSEDSAVYYCTLGSYWGQGTLVTVSA
VL: not shown
notes: Monospecific, bivalent parental antibody
With B3 the “EC50 (read off the curve)” value (human CD30 [14]) was about 1 µg/mL, the “EC50 (read off the curve)” value (human CD30 [15]) was about 0.6 µg/mL and the “EC50 (read off the curve)” value (human CD30 [16]) was about 0.2 µg/mL. For the same binder, the “EC50 (read off the curve)” value [17] was about 0.4 µg/mL.
